T1: human Tie1 Fc (Homo sapiens, UniProt P35590)
T1 construct: selected against the Tie1 extracellular domain fused to human Fc or to a histidine purification tag
T1 sequence (P35590 22-759 limits assumed): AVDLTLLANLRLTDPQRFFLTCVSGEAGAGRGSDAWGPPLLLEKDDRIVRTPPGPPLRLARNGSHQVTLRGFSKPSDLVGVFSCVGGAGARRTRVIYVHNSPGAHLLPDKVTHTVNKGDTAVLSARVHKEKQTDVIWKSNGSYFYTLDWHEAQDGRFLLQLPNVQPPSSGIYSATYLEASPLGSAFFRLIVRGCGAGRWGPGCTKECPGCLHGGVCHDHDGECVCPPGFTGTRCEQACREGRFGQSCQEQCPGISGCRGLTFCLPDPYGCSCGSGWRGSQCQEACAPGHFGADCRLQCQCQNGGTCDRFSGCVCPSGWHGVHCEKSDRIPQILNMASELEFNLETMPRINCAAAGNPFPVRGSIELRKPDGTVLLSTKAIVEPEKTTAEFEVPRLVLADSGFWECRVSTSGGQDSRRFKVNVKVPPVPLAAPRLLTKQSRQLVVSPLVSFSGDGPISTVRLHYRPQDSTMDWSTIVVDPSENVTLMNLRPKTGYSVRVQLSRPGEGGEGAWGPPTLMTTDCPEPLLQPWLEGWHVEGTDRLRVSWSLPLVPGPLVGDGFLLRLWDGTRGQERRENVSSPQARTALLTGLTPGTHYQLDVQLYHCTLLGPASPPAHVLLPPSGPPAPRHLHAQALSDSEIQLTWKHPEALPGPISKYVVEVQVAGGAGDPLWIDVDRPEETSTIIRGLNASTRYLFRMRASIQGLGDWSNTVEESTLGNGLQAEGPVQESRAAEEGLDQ


Molecular target: T1, human Tie1 Fc
Experiment: ELISA on recombinant Tie1-Fc
Assay type: binding
Conditions: soluble Fab 5 or 1 μg per 100 μl; 500 or 50 ng antigen per well
Description: To evaluate if the conversion of any of the somatic mutations in the framework of E3 back to germline residues had any effect on binding activity the soluble Fabs were produced. The soluble expression vector containing the parental E3 Fab and the germlined E3 Fab construct were grown overnight at 30° C. in 2×TY broth containing 100 μg/ml ampicillin and 2% glucose and use 4 ml of this overnight culture to inoculate 400 ml of 2×TY broth containing 100 μg/ml ampicillin and 0.1% glucose. Cells were grow at 37° C. until an OD600 of 0.8-1.0, 1 mM IPTG was added and the culture was maintained at 30° C. for 4 hours. The cultures were spun down at 4,000 rpm for 15 min at 4 C. […] Dialyze against PBS using dialysis cassettes (SLIDE-A-LYSER™ Dialysis Cassettes, MWCO 10,000, Pierce, cat. no. 66380) and determine the protein concentration from the absorbance at 280 nm assuming that a 1 mg/ml solution has an absorbance of 0.86. The quality of the preparations can be analyzed by reducing and non-reducing SDS-PAGE.
Wells of an IMMULON™ 2 HB plate coated overnight with 500 ng or 50 ng of purified recombinant human Tie1-Fc target antigen per 100 microliters 0.1 M sodium bicarbonate buffer, pH 8.5. […] After washing the wells seven times 100 microliters TMB-H2O2 solution was added to each well and the plate read at 630 nm in an ELISA.

Molecule | binding to recombinant human Tie1-Fc in ELISA
parental E3 Fab: soluble Fab fragment of the parental E3 anti-Tie1 antibody (antibody, V domains shown) VH: EVQLLESGGGLVQPGGSLRLSCAASGFTFSMYGMVWVRQAPGKGLEWVSVISPSGGNTGYADSVKGRFTISRDNSKNTLYLQVNSLRAEDTAVYYCARAPRGYSYGYYYWGQGTLVTVSSASTKGPSVFPLAPSSKSTSGG VL: DIQMTQSPLSLSASVGDRVTITCRASQGIGHYLAWYQQKPGKVPKLLIYTASTLQSGVPSRFSGSGSGTDFTLTINSLQPEDVATYYCQQFNSYPHTFGQGTRLDIK | bound to the recombinant human Tie1-Fc target antigen
germlined E3 Fab: soluble Fab of E3 with LC framework regions germlined to DPK4; LC variable SEQ ID NO:159 (antibody, V domains shown) VH: EVQLLESGGGLVQPGGSLRLSCAASGFTFSMYGMVWVRQAPGKGLEWVSVISPSGGNTGYADSVKGRFTISRDNSKNTLYLQVNSLRAEDTAVYYCARAPRGYSYGYYYWGQGTLVTVSSASTKGPSVFPLAPSSKSTSGG VL: DIQMTQSPSSLSASVGDRVTITCRASQGIGHYLAWYQQKPGKVPKLLIYTASTLQSGVPSRFSGSGSGTDFTLTISSLQPEDVATYYCQQFNSYPHTFGQGTRLEIK | bound to the recombinant human Tie1-Fc target antigen

— US20100196361A1, “Method of inhibition of vascular development using an antibody” (DYAX CORP., priority 2003, published 2010)
